Residue numbers refer to the chain shown, from its start.
B1: PR302341-43 (antibody, human IgG1, kappa, V domains shown)
VH: QVQLVQSGAEVKKPGASVKVSCKASGYTFTDYFMKWVRQAPGQGLEWMGVINPNNADIFYNQKFKGRVTMTVDKSTSTAYMELSSLRSEDTAVYYCARGTDRALFAYWGQGTLVTVSS
VL: DVVMTQTPLSSPVTLGQPASISCRSGQSIVHSDGNTYLEWYQQRPGQPPRLLIYKVSNRFSGVPDRFSGSGAGTDFTLKISRVEAEDLGVYYCFQGSHIPWTFGGGTKVEIKR
B2: PR302341-44 (antibody, human IgG1, kappa, V domains shown)
VH: B1 VH with N55S, A56G
VL: B1 VL
B3: PR302341-45 (antibody, human IgG1, kappa, V domains shown)
VH: B1 VH with N55Q, A56G
VL: B1 VL
B4: PR302341-46 (antibody, human IgG1, kappa, V domains shown)
VH: B1 VH
VL: B1 VL with G34A
B5: PR302341-47 (antibody, human IgG1, kappa, V domains shown)
VH: B1 VH with N55S, A56G
VL: B1 VL with G34A
B6: PR302341-48 (antibody, human IgG1, kappa, V domains shown)
VH: B1 VH with N55Q, A56G
VL: B1 VL with G34A
B7: PR302341-49 (antibody, human IgG1, kappa, V domains shown)
VH: B1 VH
VL: B1 VL with D33E
B8: PR302341-50 (antibody, human IgG1, kappa, V domains shown)
VH: B1 VH with N55S, A56G
VL: B1 VL with D33E
B9: PR302341-51 (antibody, human IgG1, kappa, V domains shown)
VH: B1 VH with N55Q, A56G
VL: B1 VL with D33E
B10: PR302341-52 (antibody, human IgG1, kappa, V domains shown)
VH: B1 VH
VL: B1 VL with D33S
B11: PR302341-53 (antibody, human IgG1, kappa, V domains shown)
VH: B1 VH with N55S, A56G
VL: B1 VL with D33S
B12: PR302341-54 (antibody, human IgG1, kappa, V domains shown)
VH: B1 VH with N55Q, A56G
VL: B1 VL with D33S
B13: PR302341-67 (antibody, human IgG1, kappa, V domains shown)
VH: B1 VH with A56G
VL: B1 VL with G34A
B14: PR302341-68 (antibody, human IgG1, kappa, V domains shown)
VH: B1 VH with A56G
VL: B1 VL with D33E
B15: PR302341-69 (antibody, human IgG1, kappa, V domains shown)
VH: B1 VH with A56G
VL: B1 VL with D33S
B16: PR302341-55 (antibody, human IgG1, kappa, V domains shown)
VH: B1 VH with G44R, M70I, V72R, K74T, T76A
VL: B1 VL with T7S, S11L, P48S, A72S
B17: PR302341-56 (antibody, human IgG1, kappa, V domains shown)
VH: B1 VH with G44R, N55S, A56G, M70I, V72R, K74T, T76A
VL: B1 VL with T7S, S11L, P48S, A72S
B18: PR302341-57 (antibody, human IgG1, kappa, V domains shown)
VH: B1 VH with G44R, N55Q, A56G, M70I, V72R, K74T, T76A
VL: B1 VL with T7S, S11L, P48S, A72S
B19: PR302341-58 (antibody, human IgG1, kappa, V domains shown)
VH: B1 VH with G44R, M70I, V72R, K74T, T76A
VL: B1 VL with T7S, S11L, G34A, P48S, A72S
B20: PR006746 (antibody, human IgG1, kappa, V domains shown)
VH: EVQLVESGGGLVQPGGSLRLSCAASGFTFSDNWMSWVRQAPGKGLEWVANIKQDSSENYYVDSVKGRFTISRDNAKNSLYLQMNSLRAEDTAVYYCSRGLALWGWGQGTLVTVSS
VL: DIVMTHSPLSLPVTPGDPASISCRSSQSLLHSTGYNYLDWYLQKPGQSPQLLIYLGSNRASGVPDRFSGSGSGTDFTLKFIRVEAEDVGVYYCMQALQTPYTFGQGTKLEIKR
notes: PTM-removal variant of PR006669
B21: PR301777 (antibody, human IgG1, kappa, V domains shown)
VH: EMKLEESGGGLVQPGGSMKLSCVASGFTFSNYWMNWVRQSPEKGLEWVAEIRLKSNNYATHYAESVKGRFTISRDDSKSGVYLQMNNLGAEDTGIYYCTVGTLVYWGQGTLVTVSA
VL: DIVLTQSPASLAVSLGQRATISCRASQSVSTSTYNYMHWFQQKPGQPPKLLIKFASNLESGVPARFSGSGSGTDFTLNIHPVEEEDTATFYCQHSWEIPYTFGGGTKLEIKR
notes: Series 5; mouse variable domains with human IgG1 wildtype Fc
B22: PR302309 (antibody, human IgG1, kappa, V domains shown)
VH: QIQLVQSGPELKKPGETVKISCKASGYTFTNYGMNWVKQAPGKVLKWMGWINTYTGEPIYTDDFKGRFAFSLETSASTAYLQINNLKNEDTATYFCSRSTMITTGGVFAYWGQGTLVTVSA
VL: DVLMAQTPLSLPVSLGDQASISCRSSQTIVHSDGNTYLEWYLQKPGQSPKLLIYKVSNRFSGVPDRFSGSGSGTDFTLKISRVEAEDLGVYYCFQGSHVPWTFGGGTKLEIKR
notes: Series 7; mouse variable domains with human IgG1 wildtype Fc
B23: PR302334-27 (antibody, human IgG1, kappa, V domains shown)
VH: EVQLVESGGGLVQPGGSLRLSCAASGFTFSTYAMSWVRQAPGKGLEWVASIRSGGTTYYPDSVKGRFTISRDNSKNSLYLQMNSLRAEDTAVYYCTRGIDWGQGTTVTVSS
VL: DIQMTQSSLSASVSLGDRVTITCKASQSVNNDVAWYQQKPGKAPRLLIYYASNRYTGVPSRFSGSGSGTDFTFTISSLQPEDLATYFCQQDYSSWTFGGGTKVEIKR
notes: Humanized variant of PR302334
B24: PR302334-11 (antibody, human IgG1, kappa, V domains shown)
VH: B23 VH with S77T
VL: B23 VL with L83I, F87Y
notes: Humanized variant of PR302334
B25: PR302334-25 (antibody, human IgG1, kappa, V domains shown)
VH: B23 VH with Q13K, S74A
VL: B23 VL
notes: Humanized variant of PR302334

Legend:
[1] = target: T1, corticotropin-releasing hormone (CRH) peptide (human and mouse (same sequence), not fully specified); assay: cell-based or functional assay
T1 peptide: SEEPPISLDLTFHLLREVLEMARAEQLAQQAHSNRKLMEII

biotinylated CRH = target: T2, biotinylated CRH (human and mouse, not fully specified; biotinylated, position not stated); assay: Octet BLI, biotinylated CRH on SA sensor
T2 construct: also called Biotin-CRH; biotin-labeled CRH
T2 peptide: T1 peptide
Method: Octet® Red 96e was used for affinity measurement. Octet® running buffer was prepared by diluting kinetics buffer 10× (Fortebio, Cat #18-1105) in PBS according to the manufacturer's instructions. Two columns of SA sensors (Fortebio, Cat #18-5019) were hydrated in running buffer for 10 mins, one for ligand capturing and the other for reference. Antibodies were 2-fold diluted and added into a 96-well plate. […] After a 60-second baseline step, sensors were dipped into analyte and buffer wells successively, with the association and dissociation time of 180 seconds and 800 seconds, respectively. […] Signals of reference wells and reference sensors were subtracted by selecting “Double reference” before data fitting.

Binder | hCRHR1 Luciferase Reporter Assay IC50 [1] [nM] | mCrhr1 Luciferase Reporter Assay IC50 [1] [nM] | Kd (biotinylated CRH) [nM] | koff (biotinylated CRH) [s⁻¹] | kon (biotinylated CRH) [M⁻¹ s⁻¹]
B1 | 0.512 | 1.37 |  |  | 
B2 | 0.646 |  |  |  | 
B3 | 0.35 | 1.83 |  |  | 
B4 | 1.27 | 1.52 |  |  | 
B5 | 1.04 | 1.6 |  |  | 
B6 | 0.507 | 1.46 |  |  | 
B7 | 1.34 |  |  |  | 
B8 | 1.48 |  |  |  | 
B9 | 1.66 |  |  |  | 
B10 | 0.946 | 3.29 |  |  | 
B11 | 1.7 | 5.36 |  |  | 
B12 | 0.732 | 4.09 |  |  | 
B13 | 0.128 |  |  |  | 
B14 | 0.418 |  |  |  | 
B15 | 0.552 |  |  |  | 
B16 | 0.105 | 3.19 |  |  | 
B17 | 0.738 |  |  |  | 
B18 | 0.573 | 6.48 |  |  | 
B19 | 0.571 | 3.54 |  |  | 
B20 |  |  | 0.0751 | 8.69e-05 | 1.16e+06
B21 |  |  | 0.00124 |  | 
B22 |  |  | 0.0153 | 4.03e-06 | 263000
B23 |  |  | < 0.001 | < 1e-07 | 302000
B24 |  |  | < 0.001 | < 1e-07 | 684000
B25 |  |  | < 0.001 | < 1e-07 | 285000

Reference: patent US20260042834A1 (HBM ALPHA THERAPEUTICS, published 2026)
